Measured values reported in PMC7397868, “System-wide analyses of the fission yeast poly(A)+ RNA interactome reveal insights into organization and function of RNA–protein complexes”.

Biological target: T1, Cdk9;Pch1 (Schizosaccharomyces …, UniProt Q96WV9;O74627 1-591;1-342, |)
T1 sequence 1: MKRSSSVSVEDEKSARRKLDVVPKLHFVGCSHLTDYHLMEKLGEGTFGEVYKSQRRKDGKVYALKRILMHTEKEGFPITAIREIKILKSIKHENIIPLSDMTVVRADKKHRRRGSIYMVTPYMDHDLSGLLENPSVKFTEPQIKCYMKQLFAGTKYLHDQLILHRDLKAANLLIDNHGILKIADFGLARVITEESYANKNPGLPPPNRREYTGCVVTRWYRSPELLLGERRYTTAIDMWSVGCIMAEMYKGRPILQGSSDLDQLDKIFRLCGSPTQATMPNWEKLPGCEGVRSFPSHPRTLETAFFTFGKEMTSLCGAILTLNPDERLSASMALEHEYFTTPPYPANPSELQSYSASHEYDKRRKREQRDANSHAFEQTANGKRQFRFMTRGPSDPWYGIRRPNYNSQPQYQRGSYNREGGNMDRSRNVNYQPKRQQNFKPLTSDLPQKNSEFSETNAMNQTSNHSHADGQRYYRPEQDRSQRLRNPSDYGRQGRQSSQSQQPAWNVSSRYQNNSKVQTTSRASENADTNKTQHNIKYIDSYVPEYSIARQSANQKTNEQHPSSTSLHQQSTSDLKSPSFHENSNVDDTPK
T1 sequence 2: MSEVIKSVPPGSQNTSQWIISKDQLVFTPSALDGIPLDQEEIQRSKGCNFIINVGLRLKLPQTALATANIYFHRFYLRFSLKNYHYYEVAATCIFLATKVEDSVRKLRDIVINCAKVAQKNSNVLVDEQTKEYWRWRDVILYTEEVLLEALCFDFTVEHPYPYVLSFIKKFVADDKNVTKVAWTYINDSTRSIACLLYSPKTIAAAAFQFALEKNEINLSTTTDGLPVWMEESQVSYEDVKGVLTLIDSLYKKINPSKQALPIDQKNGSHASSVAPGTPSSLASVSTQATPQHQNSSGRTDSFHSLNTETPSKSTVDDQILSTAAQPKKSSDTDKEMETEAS
Assay: fluorescence anisotropy; 8 nM RNA; four-parameter logistic fit with Hill slope; 20 mM HEPES 7.5, 150 mM NaCl, 0.5 mM MgCl2, 0.5 mM Mg(OAc)2, 1 mM 2-mercaptoethanol; 20 min at RT, read at 25 C
Conditions: protein: recombinant;recombinant; tags: none stated;N-terminal His-TEV, His-tag cleaved with TEV; copies: 1;1; single strand; heated 5 min at 95 C before use

Binder: AUUAGUAAAAUAUAUGCAUAAAGACCAGGC (ssRNA) [generic FAM-labeled RNA oligo]
- Kd: 47 ± 1.7 nM
